Test results published in patent US6436654B1, “Methods for identifying compounds that modulate HIF-1α” (Pharmacia & Upjohn AB, priority 1998, dated 2002).
Each block holds one compound with its values, some of them ahead of it.

Experiments:
COS7 cells = test: Subcellular distribution of GFP-HIF-1α chimeras in living cells (fluorescence microscopy, cell counting); format: cell-based, simian
[1] = test system: GAL4 responsive reporter plasmid; test: Cotransfection of GAL4-HIF-1α fusion proteins with GAL4 responsive luciferase reporter; format: cell-based, simian
Excerpt: To analyze functional activities of HIF-1α independently of the endogenous DNA binding and dimerization domains and the Arnt partner, we next fused HIF-1α to the heterologous DNA binding domain of GAL4. Functional activity of the fusion protein was monitored in COS7 cells by a cotransfection assay using a reporter gene construct carrying five GAL4 DNA binding elements in front of thymidine kinase promoter and the luciferase gene. Six hours after transfection media was changed, and cells were either left uninduced or exposed to 1% oxygen for 30 h prior to harvest. In the presence of either empty expression vector or a vector expressing the minimal GAL4 DNA binding domain, reporter gene activity was unaltered by reduced oxygen levels. […] The GAL4 DNA binding domain is known to harbor an NLS motif capable of taking fusion proteins to the nucleus (Ma and Ptashne (1987) Cell 51, 113-119). We therefore used antibodies directed against the DNA binding domain of GAL4 to examine in both normoxic and hypoxic cells the intracellular localization of the GAL4-HIF-1α fusion protein by immunofluorescence.
Transcriptional activity of GFP and GAL4 fusion constructs was analyzed in a cotransfection assay where effector plasmids (0.2 μg/30-mm dish) together with a reporter gene (1.5 μg/30-mm dish) were introduced into COS7 or HeLa cells. […]

GST/Ref-1 = GST/Ref-1 (Homo sapiens, UniProt P27695); test: Pull-down of [35S]methionine-labeled GAL4/HIF proteins with GST/Ref-1; format: binding; conditions: presence or absence of diamide
GST/Ref-1, sequence (P27695 whole entry, species assumed, the tested form may be a part): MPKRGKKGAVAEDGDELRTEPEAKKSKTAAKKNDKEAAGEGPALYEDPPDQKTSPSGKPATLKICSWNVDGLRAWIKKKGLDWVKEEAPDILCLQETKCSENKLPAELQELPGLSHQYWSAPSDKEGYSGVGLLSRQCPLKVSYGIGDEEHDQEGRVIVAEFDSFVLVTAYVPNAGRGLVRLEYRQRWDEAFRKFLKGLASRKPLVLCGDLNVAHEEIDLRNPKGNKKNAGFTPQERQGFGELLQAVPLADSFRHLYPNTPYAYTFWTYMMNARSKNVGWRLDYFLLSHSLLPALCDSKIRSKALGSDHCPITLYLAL
Description: The precise mechanism by which Ref-1 activates HIF-1α is not known. […] To further investigate whether Ref-1 could interact with HIF-1α, we tried to trap the interaction by using a crosslinking reagent such as diamide, which oxidizes cysteine sulfhydryls to disulfides. A series of experiments was performed with GST-tagged purified Ref-1. [^35S]methionine-labeled in vitro translated GAL4/HIF 1-826 was incubated with GST/Ref-1 in the presence or absence of diamide.
Next, we tried a series of pull-down experiments with [^35S]methionine-labeled in vitro translated GAL4/HIF […] and GAL4/HIF 531-584. […] An interaction between GAL4/HIF […] and GST/Ref-1 was also detected, and this interaction was enhanced in the presence of diamide. In excellent agreement with this observation the C-TAD contains two cysteine residues. […] Immunoblot analysis verified that the input concentrations of GST/Ref-1 or GST alone were similar.

HIF-1α/Arnt complex = biological target: T1, HIF-1α/Arnt complex (Homo sapiens, UniProt Q16665); test: pT81/HRE-Luc reporter assay with HIF-1α, Arnt and coactivators (CBP, TIF2, SRC-1); format: cell-based
T1 construct: expression plasmid for full-length HIF-1α (pCMV-HIF-1α); expressed in transfected cells
T1 sequence (Q16665 whole entry): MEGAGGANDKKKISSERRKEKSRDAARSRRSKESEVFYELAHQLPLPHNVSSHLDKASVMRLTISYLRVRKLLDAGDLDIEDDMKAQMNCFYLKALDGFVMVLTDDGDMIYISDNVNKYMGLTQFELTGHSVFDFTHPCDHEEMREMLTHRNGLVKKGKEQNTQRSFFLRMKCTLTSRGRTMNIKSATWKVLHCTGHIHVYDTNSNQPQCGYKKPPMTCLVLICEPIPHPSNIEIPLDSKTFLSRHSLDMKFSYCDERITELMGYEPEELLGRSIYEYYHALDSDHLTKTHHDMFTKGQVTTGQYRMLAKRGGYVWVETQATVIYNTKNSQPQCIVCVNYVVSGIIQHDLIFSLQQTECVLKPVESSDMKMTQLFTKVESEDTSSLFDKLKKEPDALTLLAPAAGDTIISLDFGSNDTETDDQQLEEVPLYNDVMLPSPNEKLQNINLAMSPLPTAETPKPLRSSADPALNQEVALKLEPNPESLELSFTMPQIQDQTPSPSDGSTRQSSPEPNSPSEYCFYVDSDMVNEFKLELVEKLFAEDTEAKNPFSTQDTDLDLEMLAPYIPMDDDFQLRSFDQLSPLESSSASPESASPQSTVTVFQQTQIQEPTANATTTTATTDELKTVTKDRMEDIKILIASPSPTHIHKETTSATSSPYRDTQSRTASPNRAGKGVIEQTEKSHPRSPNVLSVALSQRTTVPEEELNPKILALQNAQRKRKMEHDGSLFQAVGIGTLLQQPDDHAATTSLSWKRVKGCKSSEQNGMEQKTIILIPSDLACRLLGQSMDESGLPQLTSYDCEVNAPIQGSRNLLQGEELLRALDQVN
T1 sequence (P27540 whole entry partner): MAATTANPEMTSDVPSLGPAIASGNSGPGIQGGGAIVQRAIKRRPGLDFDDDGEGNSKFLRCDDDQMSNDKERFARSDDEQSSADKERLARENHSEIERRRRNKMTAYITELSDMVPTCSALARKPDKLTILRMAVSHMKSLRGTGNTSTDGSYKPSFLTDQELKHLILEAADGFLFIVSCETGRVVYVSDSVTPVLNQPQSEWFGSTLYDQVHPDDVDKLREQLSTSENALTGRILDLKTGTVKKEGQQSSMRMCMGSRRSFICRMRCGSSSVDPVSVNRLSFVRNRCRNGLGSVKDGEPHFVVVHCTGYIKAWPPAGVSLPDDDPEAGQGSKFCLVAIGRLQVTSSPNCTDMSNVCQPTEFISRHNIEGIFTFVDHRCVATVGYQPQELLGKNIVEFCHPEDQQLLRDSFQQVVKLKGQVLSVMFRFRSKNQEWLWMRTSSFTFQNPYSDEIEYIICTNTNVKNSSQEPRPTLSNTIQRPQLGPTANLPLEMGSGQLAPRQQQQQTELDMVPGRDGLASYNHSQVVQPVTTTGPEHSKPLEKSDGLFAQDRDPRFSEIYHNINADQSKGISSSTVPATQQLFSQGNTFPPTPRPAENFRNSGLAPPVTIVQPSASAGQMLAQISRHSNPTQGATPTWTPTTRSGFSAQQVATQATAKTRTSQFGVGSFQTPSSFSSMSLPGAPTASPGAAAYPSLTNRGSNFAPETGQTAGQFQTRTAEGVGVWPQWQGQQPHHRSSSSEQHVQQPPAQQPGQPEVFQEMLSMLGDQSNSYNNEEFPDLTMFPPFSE
Description: FIG. 8 The transcriptional coactivator TIF2 enhances the HIF-1α-mediated transactivation function and interacts with HIF-1α in vivo. COS7 cells were transiently cotransfected as described in Materials and Methods with 0.5 μg pT81/HRE-Luc reporter construct, hHIF1-α expression vector (pCMV4/HIF-1α, 0.2 μg), Arnt expression vector (pCMV4/Arnt, 0.2 μg) and 0.75-1.5 μg of either TIF2 (pSG5/TIF2) or CBP (Rc/RSV-CBP-HA), as indicated. The total amount of DNA was kept constant by the addition of parental pCMV4 when appropriate. Following transfection cells were incubated either under normoxic (21% O2) or hypoxic conditions (1% O2). Luciferase activities were normalized for transfection efficiency by cotransfection of alkaline phosphatase expressing pRSV-AF. Data are presented as luciferase activity relative to cells transfected with pCMV4 and reporter gene only and incubated at normoxia. Values represent the mean ±S.E. of two independent experiments.
(§1) FIG. 9 The transcriptional coactivator SRC-1 stimulates HIF-1α activity in a hypoxia-dependent manner and interacts in vitro with HIF-1α. (A) COS7 and (B) human embryonic kidney 293 cells were cotransfected with pT81/HRE-Luc (0.5 μg), 0.2 μg of pCMV4/HIF-1α (hHIF1-α), 0.2 μg of pCMV4/Arnt (Arnt), and 0.75-1.5 μg of SRC-1 (pSG5/SRC-1), as indicated. Six h after transfection cells were exposed to either 21 or 1% O2 for 36 h before harvest. Luciferase values are presented as relative luciferase activity as described in the legend to FIG. 1. The results of three independent experiments performed in duplicate ±S.E. are shown. (C) SRC-1 PAS domain is not required for functional interaction with HIF-1α. (Top) Schematic representation of full-length SRC-1 and SRC-1ΔPAS. (Bottom) pGAL4/HIF 71-826 was cotransfected into COS7 cells together with a reporter plasmid expressing the luciferase gene driven by the thymidine kinase minimal promoter under the control of five copies of GAL4-binding sites, and 1.5 μg of either full-length SRC-1 or a deletion mutant of SRC-1, SRC-1ΔPAS, lacking the PAS domain. Cells were exposed to 21 or 1% O2 for 36 h before harvest and reporter gene assays. Luciferase values are presented as relative luciferase activity as described in the legend to FIG. 1. The results of two independent experiments performed in duplicate +S.E. are shown. (D) In vitro interaction between SRC-1 and HIF-1α. COS7 cells were transfected with 10 μg of the expression plasmid pGST-HIF-1α (GST-HIF) or empty GST expression vector (GST). Cells were exposed to either 100 μM CoCl2 or vehicle (H2O) for 24 h. […] The eluted material was analyzed on 5% SDS-PAGE and visualized by fluorography. ⅕×Input represents one-fifth of the amount of [^35S]methionine-labeled SRC-1 used in the binding reactions. […]

[2] = test system: hypoxia responsive reporter gene (HRE-luc); test: Cotransfection of GFP-HIF-1α fusion constructs with hypoxia responsive reporter gene (HRE-luc); format: cell-based, simian; conditions: 1% O2 vs normoxia, no CBP
Excerpt: We next examined the ability of GFP-HIF-1α fusion proteins in functional cotransfection assays where GFP-HIF-1α expression vectors were introduced into COS7 cells together with a hypoxia-responsive gene reporter construct carrying three tandem copies of the erythropoietin hypoxia responsive element (HRE) in front of the Herpes simplex thymidine kinase promoter and the luciferase gene. […] This reporter gene activity was further stimulated about 4-fold by hypoxia (FIG. 6A). In control experiments, transient expression of wild-type HIF-1α also yielded a similar pattern of reporter gene activation, albeit with a slightly lower potency generating about a 2-fold activation response upon exposure to hypoxia. […] In fact, stabilization of the fusion protein (FIG. 2C) by the GFP moiety may rather have enhanced the potency of the activation response produced by HIF-1α.
Transcriptional activity of GFP and GAL4 fusion constructs was analyzed in a cotransfection assay where effector plasmids (0.2 μg/30-mm dish) together with a reporter gene (1.5 μg/30-mm dish) were introduced into COS7 or HeLa cells. The reporter plasmid encoded firefly luciferase gene under the control of thymidine kinase minimal promoter and either five or three copies of GAL4 or HIF-responsive elements, respectively.

GST-HIF-1α = biological target: T2, GST-HIF-1α (Homo sapiens, UniProt Q16665); test: GST precipitation assay of in vitro translated [35S]labeled SRC-1 with GST-HIF-1α; format: binding
T2 construct: expressed in transfected cells; host or cells: COS7 cells, treated with 100 μM CoCl2 or vehicle; whole cell extract used
T2 sequence (Q16665 whole entry): as the sequence (Q16665 whole entry) above
Description: as §1, with “assays.” for “assays. Luciferase values are presented as relative luciferase activity as described in the legend to FIG. 1. The results of two independent experiments performed in duplicate +S.E. are shown. (D) In vitro interaction between SRC-1 and HIF-1α. COS7 cells were transfected with 10 μg of the expression plasmid pGST-HIF-1α (GST-HIF) or empty GST expression vector (GST). Cells were exposed to either 100 μM CoCl2 or vehicle (H2O) for 24 h.”

Compound: [Cl-].[Cl-].[Co+2] [CoCl2]
- effect on nuclear import of GFP-HIF-1α (COS7 cells): induced nuclear import of GFP-HIF-1α

Compound: SRC-1: p160 family transcriptional coactivator
- enhancement of transcriptional activity of HIF-1α (HIF-1α/Arnt complex; normoxic conditions, COS7): around 3 fold
- binding to GST-HIF-1α (in words) (GST-HIF-1α; extract of cells treated with 100 μM CoCl2): specifically retained
- binding to GST-HIF-1α (in words) (GST-HIF-1α; extract of non-treated cells): no significant binding

More lines, main results first:

- hypoxia-dependent activation of GAL4 reporter gene activity ([1]; 1% O2 vs normoxia, no exogenous coactivator): about 2 fold
- stimulation of GAL4 reporter activity by coexpressed CBP ([1]; hypoxic conditions, vs hypoxia without exogenous coactivator): 19 fold
- binding to GST/Ref-1 (in words) (GST/Ref-1): weakly bind GST/Ref-1
Compound: GAL4-HIF-1α: full length HIF-1α fused to the GAL4 DNA binding domain

- increase of reporter gene activity by hypoxia (HIF-1α/Arnt complex; coexpression of HIF-1α and Arnt, 1% O2): ~1.5 fold
- stimulation of pT81/HRE-luc reporter gene activity (HIF-1α/Arnt complex; coexpression of HIF-1α and Arnt, normoxic conditions): around 10 fold
Compound: HIF-1α: transiently expressed wild-type human hypoxia-inducible factor-1α
- stimulation of HRE reporter gene activity by hypoxia compared to normoxia [2]: about 2 fold

- activation of the reporter gene over the levels observed at normoxia (HIF-1α/Arnt complex; coexpression with HIF-1α, COS7): around 12 fold
Compound: TIF2: p160 family transcriptional coactivator
